Earlier results as cited in patent US20140303060A1, “PROCESS FOR DEGRADING A BIOFILM ON SURFACES OF OBJECTS” (Fraunhofer Gesellschaft Zur Foerderung der angwandten …, priority 2011, published 2014).

Substance: lysostaphin: zinc-dependent enzyme that cleaves the pentaglycine cross bridges of the bacterial cell wall
- effect of repeated freezing and thawing on activity: reduction of activity
